Results from US5208158A, “Oxidation stable detergent enzymes” (Novo Nordisk A/S, priority 1990, dated 1993).

Columns and labels:
Format in all cases: biochemical
[1] = molecular target: T1, Subtilisin-309 variant Subtilisin-309-M222C-SM (M222C chemically modified with MMTS) (Lederbergia lenta, UniProt P29600, M216C); experiment: Titration of the enzyme with phenyl-Hg-Cl; details: excess of phenyl-Hg-Cl relative to enzyme of 2.5
T1 construct: made in house
T1 sequence (P29600 1-269 M216C): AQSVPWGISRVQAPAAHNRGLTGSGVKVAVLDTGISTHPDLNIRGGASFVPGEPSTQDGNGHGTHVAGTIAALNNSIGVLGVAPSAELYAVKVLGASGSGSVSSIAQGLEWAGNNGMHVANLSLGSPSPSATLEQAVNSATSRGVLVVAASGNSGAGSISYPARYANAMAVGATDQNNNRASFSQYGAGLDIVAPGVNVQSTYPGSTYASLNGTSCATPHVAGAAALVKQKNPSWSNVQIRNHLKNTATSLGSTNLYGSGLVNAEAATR
Text: (§1) As a further control, the enzyme was titrated with phenyl-Hg-Cl. When subtilisin-309-M222C is modified with phenyl-Hg-Cl, the activity decreases. When the ratio phenyl-Hg-Cl/WT exceeds 1, the activity constantly remains 10% of the activity of the non-modified enzyme, corresponding to 1 group per enzyme being modified.

[2] = molecular target: T2, Subtilisin-309 variant Subtilisin-309-M222C (Lederbergia lenta, UniProt P29600, M216C); experiment: Titration of the enzyme with phenyl-Hg-Cl; details: ratio phenyl-Hg-Cl/enzyme exceeds 1
T2 construct: made in house
T2 sequence (P29600 1-269 M216C): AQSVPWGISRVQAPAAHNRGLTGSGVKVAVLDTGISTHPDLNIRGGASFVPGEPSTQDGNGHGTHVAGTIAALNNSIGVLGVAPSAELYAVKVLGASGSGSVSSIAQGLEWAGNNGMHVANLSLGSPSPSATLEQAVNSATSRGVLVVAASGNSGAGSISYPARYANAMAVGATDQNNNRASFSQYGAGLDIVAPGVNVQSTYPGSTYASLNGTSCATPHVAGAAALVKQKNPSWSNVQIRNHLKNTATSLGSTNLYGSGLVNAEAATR
Text: as §1

[3] = substrate: C[C@H](NC(=O)CCC(=O)O)C(=O)N[C@@H](C)C(=O)N1CCC[C@H]1C(=O)N[C@@H](Cc1ccccc1)C(=O)Nc1ccc([N+](=O)[O-])cc1; experiment: Kinetic characterization, cleavage of Suc-Ala-Ala-Pro-Phe-pNA monitored at 410 nm; details: other: 50 mM Bicine, 2 mM CaCl2, 0.1 M KCl, pH 8.5, 25° C., substrate 0.2 to 6.5 mM
Description: The proteolytic activity can be monitored spectrophotometrically at 25° C., following the degradation of the peptide substrates Suc-Ala-Ala-Pro-Phe-pNA (Suc=Succinyl and pNA=p-nitro-anilid) or DMC (dimethyl-casein), and subsequent calculation of the kinetic parameters kcat. and KM.
For kinetic characterization, the savinase enzymes were assayed in:
50 μl X mM Suc-Ala-Ala-Pro-Phe-pNA in DMF
wherein the cleavage of substrate between Phe and pNA (p-nitro-anilid) is monitored spectrophotometrically at 410 nm, Δε=8500M^-1 cm^-1. The enzymatic concentrations are determined from the absorption at 280 nm, using Δε28 determined from the amino acid composition, Δε280 =23217M^-1 cm^-1.
The kinetic parameters kcat and KM are determined from a direct fit of the initial velocities at 7 concentrations of substrate to the Michaelis Menten equation. The […], X, is varied from 4 to 131 mM, so that the concentration of the substrate in assay varies from 0.2 to 6.5 mM. Thus selected around the KM value of the enzymes.

Molecule	activity change on reaction with phenyl-Hg-Cl [1]	activity remaining, of the activity of the non-modified enzyme [2]	Km [3]	kcat [3]	kcat/Km [3]
[Cl][Hg][c]1ccccc1 [phenyl-Hg-Cl]	no activity change is observed	10%			
Subtilisin-309 (wild type) (Lederbergia lenta) (protein) AQSVPWGISRVQAPAAHNRGLTGSGVKVAVLDTGISTHPDLNIRGGASFVPGEPSTQDGNGHGTHVAGTIAALNNSIGVLGVAPSAELYAVKVLGASGSGSVSSIAQGLEWAGNNGMHVANLSLGSPSPSATLEQAVNSATSRGVLVVAASGNSGAGSISYPARYANAMAVGATDQNNNRASFSQYGAGLDIVAPGVNVQSTYPGSTYASLNGTSMATPHVAGAAALVKQKNPSWSNVQIRNHLKNTATSLGSTNLYGSGLVNAEAATR			1760 µM	91.2 ± 1.0 s⁻¹	52 S^-1 mM^-1
Subtilisin-309 variant Subtilisin-309-M222C (Lederbergia lenta; M216C) (protein, made in house) AQSVPWGISRVQAPAAHNRGLTGSGVKVAVLDTGISTHPDLNIRGGASFVPGEPSTQDGNGHGTHVAGTIAALNNSIGVLGVAPSAELYAVKVLGASGSGSVSSIAQGLEWAGNNGMHVANLSLGSPSPSATLEQAVNSATSRGVLVVAASGNSGAGSISYPARYANAMAVGATDQNNNRASFSQYGAGLDIVAPGVNVQSTYPGSTYASLNGTSCATPHVAGAAALVKQKNPSWSNVQIRNHLKNTATSLGSTNLYGSGLVNAEAATR			1820 µM	43.2 ± 0.03 s⁻¹	23.8 S^-1 mM^-1
